These results are taken from article PMC2602770.

Data set [1] deals with T1, GST-AtGRP8 (WT) (Arabidopsis thaliana, UniProt Q03251 1-169).
T1 sequence: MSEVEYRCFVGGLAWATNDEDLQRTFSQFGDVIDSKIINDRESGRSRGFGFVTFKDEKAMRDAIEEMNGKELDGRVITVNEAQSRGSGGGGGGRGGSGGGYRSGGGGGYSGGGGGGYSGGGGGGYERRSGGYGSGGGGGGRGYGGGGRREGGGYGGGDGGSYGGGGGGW
Nature of the data set: EMSA. For orientation: Mobility shift assays separate free from complexed probe on a gel.

The target in data set [2] is T2, GST-AtGRP8-RQ (Arabidopsis thaliana, UniProt Q03251 1-169, R47Q).
T2 sequence: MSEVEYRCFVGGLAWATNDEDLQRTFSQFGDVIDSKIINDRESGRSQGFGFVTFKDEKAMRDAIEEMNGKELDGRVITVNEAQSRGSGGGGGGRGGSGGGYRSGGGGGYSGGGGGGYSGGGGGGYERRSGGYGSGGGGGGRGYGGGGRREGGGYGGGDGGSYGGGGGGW
Nature of the data set: EMSA.

The target of data set [3] is T1, GST-AtGRP8 (WT). Kind of data set: competition.
For data set [4], the target named is T1, GST-AtGRP8 (WT). Kind of data set: EMSA. This is another data set of the same source.

B1: 8-intron_WT (ssRNA)
RNA: CUUCCACGAUUGUUUUUGCUGAUGUGU
For orientation: Kd means the concentration at which binding is half-saturated. In the case of B1, the equilibrium dissociation constant (Kd) came to 1640 nM in data set [1] and 22900 nM in data set [2].

B2: 7-UTR_WT (ssRNA)
RNA: AUUUUGUUCUGGUUCUGCUUUAGAUUUGAUCU
With B2, the figures for the Kd in data set [1] and in data set [2] were 318 nM and 3220 nM, respectively.

B3: 7-intron_G6mut (ssRNA)
RNA: GUUCAAUUUUAUUAAAUUAUUUUACUGAUCUG
Turning to B3, in data set [3], the binding result is given as “no binding”.

B4: 7-intron_WT (ssRNA)
RNA: GUUCAGUUUUGUUGGAUUGUUUUGCUGAUCUG
As for B4, the dissociation constant Kd turned out to be 426 nM in data set [1] and 3590 nM in data set [2].

B5: 8-UTR_WT (ssRNA)
RNA: GUUUUUGGUUUAGAUUUGGUUUUGUGU
As to B5, the Kd in data set [1] amounted to 205 nM; in data set [2], 1310 nM.

B6: 8-UTR_938 (ssRNA)
RNA: CGUUUGGUUUACUUUUUUGAUGAAACA
As for B6, the binding signal in data set [4] is ~10 fold lower affinity than 8-UTR_WT.
